Results as given in patent US20240417436A1 (BRIGHT PEAK THERAPEUTICS, published 2024).
Bridges are numbered along the chain shown (N, C = ends). Primed or numbered codes have the meaning given here. [ ]: non-standard residue; d: D form. Ygp = O-(8x polyethylene glycol-amino)-tyrosine; Yn3 = O-(9x polyethylene glycol-azido)-tyrosine; cleavable moiety = not defined here; PEG4′ = 4x polyethylene glycol; PEG9″ = 9x polyethylene glycol; hSer = N[C@@H](CCO)C(=O)O; Nle = CCCC[C@H](N)C(=O)O

T1: IL-2 receptor βγ complex on pan T cells (human, UniProt P14784 27-551; P31785 23-369)
T1 sequence (looked up) 1: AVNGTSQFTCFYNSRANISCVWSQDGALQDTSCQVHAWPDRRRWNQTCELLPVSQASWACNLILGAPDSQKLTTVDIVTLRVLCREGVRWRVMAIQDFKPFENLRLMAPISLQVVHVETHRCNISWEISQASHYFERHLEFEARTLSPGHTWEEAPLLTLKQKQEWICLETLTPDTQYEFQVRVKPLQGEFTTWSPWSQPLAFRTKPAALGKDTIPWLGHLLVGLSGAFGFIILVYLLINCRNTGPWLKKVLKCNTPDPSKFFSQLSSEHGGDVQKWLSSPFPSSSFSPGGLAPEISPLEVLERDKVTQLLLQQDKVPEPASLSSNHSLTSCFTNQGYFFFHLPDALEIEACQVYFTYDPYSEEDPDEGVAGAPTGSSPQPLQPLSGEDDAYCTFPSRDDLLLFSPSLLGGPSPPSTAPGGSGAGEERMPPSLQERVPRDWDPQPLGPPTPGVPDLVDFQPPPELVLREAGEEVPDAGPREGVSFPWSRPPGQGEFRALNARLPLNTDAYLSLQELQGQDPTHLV
T1 sequence (looked up) 2: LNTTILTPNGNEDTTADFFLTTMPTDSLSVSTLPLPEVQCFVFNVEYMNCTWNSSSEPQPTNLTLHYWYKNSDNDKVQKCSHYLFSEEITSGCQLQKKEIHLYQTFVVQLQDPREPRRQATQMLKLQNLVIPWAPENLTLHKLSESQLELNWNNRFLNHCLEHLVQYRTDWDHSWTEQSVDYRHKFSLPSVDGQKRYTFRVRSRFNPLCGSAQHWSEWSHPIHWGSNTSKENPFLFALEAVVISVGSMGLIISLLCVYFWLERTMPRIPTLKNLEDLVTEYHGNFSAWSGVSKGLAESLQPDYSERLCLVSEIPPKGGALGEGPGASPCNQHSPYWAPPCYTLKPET


target: T1, IL-2 receptor βγ complex on pan T cells; assay: cell-based or functional assay

Row | Binder | Average EC50, pSTAT5 assay in pan T cells, intact molecule [nM] | Average EC50, pSTAT5 assay in pan T cells, MMP2 cleaved molecule [nM]
1 | CMP-304 (ligand, linker N-29 via PEG9″; ends not checked) PLGLAGAPTSSSTKKTQLQLEHLLLDLQEILNGINNYKNPKLTR[Nle]L[hSer][Yn3]KF[Ygp][Nle]PKKATELKHLQCLEEELKPLEEVL[hSer]LAQSKNFHLRPRDLISNINVIVLELKGSETTF[hSer]CEYADETATIVEFLNRWITFSQSIISTLT | 110 | 
2 | CMP-169, MMP2 cleaved (ligand, ends and bridges not checked; also: cleavable moiety between Lys9 and Glu23 side chains cut by MMP2, macrocycle opened, cut site not given here) APTSSSTKKTQLQLEHLLLDLQEILNGINNYKNPKLTR[Nle]L[hSer][Yn3]KF[Ygp][Nle]PKKATELKHLQCLEEELKPLEEVL[hSer]LAQSKNFHLRPRDLISNINVIVLELKGSETTF[hSer]CEYADETATIVEFLNRWITFSQSIISTLT |  | 5.39
3 | CMP-303 (ligand, linker N-29 via PEG4′; ends not checked) PLGLAGAPTSSSTKKTQLQLEHLLLDLQEILNGINNYKNPKLTR[Nle]L[hSer][Yn3]KF[Ygp][Nle]PKKATELKHLQCLEEELKPLEEVL[hSer]LAQSKNFHLRPRDLISNINVIVLELKGSETTF[hSer]CEYADETATIVEFLNRWITFSQSIISTLT | 97.9 | 
4 | CMP-302, MMP2 cleaved (ligand, ends and bridges not checked; also: cleaved by MMP2 within the cleavable peptide, macrocycle opened, cut site not given here) GPLGLAGAPTSSSTKKTQLQLEHLLLDLQEILNGINNYKNPKLTR[Nle]L[hSer][Yn3]KF[Ygp][Nle]PKKATELKHLQCLEEELKPLEEVL[hSer]LAQSKNFHLRPRDLISNINVIVLELKGSETTF[hSer]CEYADETATIVEFLNRWITFSQSIISTLT |  | 1.43
5 | CMP-169 (ligand, bridge 9-23; not fully specified (residue 9, bridges); ends not checked; also: cleavable peptide of the bridge not defined) APTSSSTKKTQLQLEHLLLDLQEILNGINNYKNPKLTR[Nle]L[hSer][Yn3]KF[Ygp][Nle]PKKATELKHLQCLEEELKPLEEVL[hSer]LAQSKNFHLRPRDLISNINVIVLELKGSETTF[hSer]CEYADETATIVEFLNRWITFSQSIISTLT | 53.4 | 
6 | CMP-301, MMP2 cleaved (ligand, ends and bridges not checked; also: cleavable moiety between Glu23 side chain and N-terminus cut by MMP2, macrocycle opened, cut site not given here) APTSSSTKKTQLQLEHLLLDLQEILNGINNYKNPKLTR[Nle]L[hSer][Yn3]KF[Ygp][Nle]PKKATELKHLQCLEEELKPLEEVL[hSer]LAQSKNFHLRPRDLISNINVIVLELKGSETTF[hSer]CEYADETATIVEFLNRWITFSQSIISTLT |  | 0.883
7 | CMP-164, MMP2 cleaved (ligand, not fully specified (residue 23, N-terminus); ends and bridges not checked; also: macrocycle (Lys23 side chain - cleavable peptide - glutaryl - Ala1) cut by MMP2, cut site not given here) APTSSSTKKTQLQLEHLLLDLQKILNGINNYKNPKLTR[Nle]L[hSer][Yn3]KF[Ygp][Nle]PKKATELKHLQCLEEELKPLEEVL[hSer]LAQSKNFHLRPRDLISNINVIVLELKGSETTF[hSer]CEYADETATIVEFLNRWITFSQSIISTLT |  | 0.61
8 | CMP-301 (ligand, bridge N-23; not fully specified (N-terminus, bridges); ends not checked; also: cleavable peptide of the bridge not defined) APTSSSTKKTQLQLEHLLLDLQEILNGINNYKNPKLTR[Nle]L[hSer][Yn3]KF[Ygp][Nle]PKKATELKHLQCLEEELKPLEEVL[hSer]LAQSKNFHLRPRDLISNINVIVLELKGSETTF[hSer]CEYADETATIVEFLNRWITFSQSIISTLT | 180 | 
9 | CMP-303, MMP2 cleaved (ligand, ends and bridges not checked; also: cleaved by MMP2 within the cleavable peptide, macrocycle opened, cut site not given here, PEG4 linker) PLGLAGAPTSSSTKKTQLQLEHLLLDLQEILNGINNYKNPKLTR[Nle]L[hSer][Yn3]KF[Ygp][Nle]PKKATELKHLQCLEEELKPLEEVL[hSer]LAQSKNFHLRPRDLISNINVIVLELKGSETTF[hSer]CEYADETATIVEFLNRWITFSQSIISTLT |  | 4.4
10 | CMP-302 (ligand, lactam N-30; ends not checked) GPLGLAGAPTSSSTKKTQLQLEHLLLDLQEILNGINNYKNPKLTR[Nle]L[hSer][Yn3]KF[Ygp][Nle]PKKATELKHLQCLEEELKPLEEVL[hSer]LAQSKNFHLRPRDLISNINVIVLELKGSETTF[hSer]CEYADETATIVEFLNRWITFSQSIISTLT | 63.4 | 
11 | CMP-304, MMP2 cleaved (ligand, ends and bridges not checked; also: cleaved by MMP2 within the cleavable peptide, macrocycle opened, cut site not given here, PEG9 linker) PLGLAGAPTSSSTKKTQLQLEHLLLDLQEILNGINNYKNPKLTR[Nle]L[hSer][Yn3]KF[Ygp][Nle]PKKATELKHLQCLEEELKPLEEVL[hSer]LAQSKNFHLRPRDLISNINVIVLELKGSETTF[hSer]CEYADETATIVEFLNRWITFSQSIISTLT |  | 8.61
12 | CMP-300 (ligand, bridge N-23; not fully specified (N-terminus, bridges); ends not checked; also: cleavable peptide of the bridge not defined) APTSSSTKKTQLQLEHLLLDLQEILNGINNYKNPKLTR[Nle]L[hSer][Yn3]KF[Ygp][Nle]PKKATELKHLQCLEEELKPLEEVL[hSer]LAQSKNFHLRPRDLISNINVIVLELKGSETTF[hSer]CEYADETATIVEFLNRWITFSQSIISTLT | 94.7 | 
13 | CMP-300, MMP2 cleaved (ligand, ends and bridges not checked; also: cleavable moiety between Glu23 side chain and N-terminus cut by MMP2, macrocycle opened, cut site not given here) APTSSSTKKTQLQLEHLLLDLQEILNGINNYKNPKLTR[Nle]L[hSer][Yn3]KF[Ygp][Nle]PKKATELKHLQCLEEELKPLEEVL[hSer]LAQSKNFHLRPRDLISNINVIVLELKGSETTF[hSer]CEYADETATIVEFLNRWITFSQSIISTLT |  | 1.73
14 | CMP-305 (ligand, linker 15-23 via cleavable moiety; ends not checked; also: cleavable peptide of the bridge not defined) APTSSSTKKTQLQLEHLLLDLQKILNGINNYKNPKLTR[Nle]L[hSer][Yn3]KF[Ygp][Nle]PKKATELKHLQCLEEELKPLEEVL[hSer]LAQSKNFHLRPRDLISNINVIVLELKGSETTF[hSer]CEYADETATIVEFLNRWITFSQSIISTLT | 128 | 
15 | CMP-305, MMP2 cleaved (ligand, ends and bridges not checked; also: cleavable moiety between Glu15 and Lys23 side chains cut by MMP2, macrocycle opened, cut site not given here) APTSSSTKKTQLQLEHLLLDLQKILNGINNYKNPKLTR[Nle]L[hSer][Yn3]KF[Ygp][Nle]PKKATELKHLQCLEEELKPLEEVL[hSer]LAQSKNFHLRPRDLISNINVIVLELKGSETTF[hSer]CEYADETATIVEFLNRWITFSQSIISTLT |  | 3.26
